This note sets out measurements from US5864018.

A value given as a limit tells only on which side of the number the result lay.

The target in assay [1] is human recombinant soluble RAGE/flag fusion protein (human). Kind of assay: excess lactoferrin against 125I-AGE-BSA binding to immobilized RAGE, Exp. 2; the filing leaves open whether lactoferrin acts through RAGE or AGE.
Assay [2] addresses AGE-BSA (bovine) (UniProt P02769). Kind of assay: excess free RAGE/DCC chimera against 125I-AGE-BSA binding to immobilized RAGE, Exp. 1.
Assay [3] deals with human recombinant soluble RAGE/flag fusion protein (human). Kind of assay: excess native BSA against 125I-AGE-BSA binding to immobilized RAGE, Exp. 3.
Assay [4] has the same target. Kind of assay: excess native BSA against 125I-AGE-BSA binding to immobilized RAGE, Exp. 2.

Turning to lactoferrin (ligand), in assay [1], the % Binding amounted to 50%.

“recombinant soluble RAGE/DCC chimeric protein (receptor)” gave a % Binding in assay [2] of 40%.

As for native BSA (from UniProt P02769), the % Binding in assay [3] and in assay [4] was > 100% each time.
